Results: PMC2562019
Where two headings read alike, the source gives them in different places.

How the values were obtained:
[1] = target: Recombinant HGF receptor (c-met)/fc chimera (UniProt P08581); experiment: SPR; Biacore 2000, 25°C; c-Met/Fc chimera amine-coupled to a CM5 chip; supernatant of buffy coat (before or after haemolysis by freezing) or serum of one donor, diluted 1:20 in PBS pH 7.4
[2] = target: Recombinant HGF receptor (c-met)/fc chimera (UniProt P08581); experiment: SPR; Biacore 2000, 25°C; c-Met/Fc chimera amine-coupled to a CM5 chip; medium conditioned by a healthy donor's blood (endogenous HGF, positive control) injected
[3] = target: Recombinant HGF receptor (c-met)/fc chimera (UniProt P08581); experiment: as above; remark: listed apart in the source
[4] = target: Recombinant HGF receptor (c-met)/fc chimera (UniProt P08581); experiment: SPR; Biacore 2000, 25°C; c-Met/Fc chimera amine-coupled (EDC/NHS) to a CM5 chip (22113 or 22377 RU); reconstituted rHGF injected at the stated concentrations; response read after the end of the injection (dissociation phase)

Chain of UniProt P08581 (P08581 25-932, change not shown): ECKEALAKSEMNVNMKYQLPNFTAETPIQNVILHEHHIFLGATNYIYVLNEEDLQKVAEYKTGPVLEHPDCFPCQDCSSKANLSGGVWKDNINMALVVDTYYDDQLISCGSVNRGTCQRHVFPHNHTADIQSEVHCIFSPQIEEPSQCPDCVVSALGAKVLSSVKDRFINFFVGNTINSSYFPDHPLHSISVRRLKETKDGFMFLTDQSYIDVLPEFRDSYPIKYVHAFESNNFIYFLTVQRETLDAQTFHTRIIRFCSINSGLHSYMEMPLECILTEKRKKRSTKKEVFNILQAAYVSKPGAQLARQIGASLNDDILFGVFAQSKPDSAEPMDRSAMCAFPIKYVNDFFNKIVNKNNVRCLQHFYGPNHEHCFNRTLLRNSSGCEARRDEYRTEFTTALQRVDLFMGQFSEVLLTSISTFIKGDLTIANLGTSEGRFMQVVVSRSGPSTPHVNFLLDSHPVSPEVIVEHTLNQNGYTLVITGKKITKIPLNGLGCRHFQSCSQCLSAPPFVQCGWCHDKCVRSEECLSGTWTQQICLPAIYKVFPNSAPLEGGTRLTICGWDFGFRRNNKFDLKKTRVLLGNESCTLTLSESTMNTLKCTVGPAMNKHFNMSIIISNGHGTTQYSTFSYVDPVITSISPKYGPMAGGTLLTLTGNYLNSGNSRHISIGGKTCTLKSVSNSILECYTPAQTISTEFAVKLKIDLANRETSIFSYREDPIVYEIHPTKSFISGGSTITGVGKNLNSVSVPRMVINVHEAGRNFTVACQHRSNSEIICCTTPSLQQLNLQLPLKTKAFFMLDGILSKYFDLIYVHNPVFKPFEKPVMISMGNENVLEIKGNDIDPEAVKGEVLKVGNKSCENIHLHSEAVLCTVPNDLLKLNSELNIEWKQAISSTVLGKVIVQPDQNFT

## Endogenous HGF from human blood (ligand)
[1]
  SPR response, buffy coat supernatant 1:20: 247 RU
  SPR response, haemolysed buffy coat 1:20: 163 RU
  SPR response, serum 1:20: 317 RU
[2]
  SPR response: 403 RU
[3]
  SPR response: 209 RU

## Recombinant HGF, R&D carrier-free, lot GJ174034 (from UniProt P14210 32-728) (ligand)
[4]
  SPR response at 2.5 μg/ml after 15 h at room temperature: 181 RU
  SPR response at 2.5 μg/ml after 15 h at −20°C and thawing: 94 RU
  SPR response at 2.5 μg/ml, freshly reconstituted: 194 RU

## Recombinant human hepatocyte growth factor, lot GJ175031 (from UniProt P14210 32-728) (ligand)
[4]
  SPR response at 0.8 μg/ml: 120 RU
  SPR response at 4 μg/ml: 201 RU
  SPR response at 5 μg/ml: 265 RU
